Laboratory results from article PMC7037036, “C-Terminal Domain of the Human Zinc Transporter hZnT8 Is Structurally Indistinguishable from Its Disease Risk Variant (R325W)” (International Journal of Molecular Sciences, 2020).
Residue numbers refer to the chain shown, from its start. In names and notes the source's numbering stands.

Biological target: the molecule itself
Assay: SEC; Superdex 75, protein 10 mg/mL, 20 mM Tris pH 7.5, 150 mM NaCl, native conditions; calibrated with standard proteins; for the WT CTD the profile was similar with 3 mM beta-mercaptoethanol and the tetramer was kept in 8 M urea (some aggregates)

B1: C-terminal domain (CTD) of the human zinc transporter 8 (hZnT8), wild type (domain or fragment, UniProt Q8IWU4 281-369, looked up)
chain: SLNYSGVKELILAVDGVLSVHSLHIWSLTMNQVILSAHVATAASRDSQVVRREIAKALSKSFTMHSLTIQMESPVDQDPDCLFCEDPCD
notes: human zinc transporter 8 (hZnT8, SLC30A8), C-terminal domain, Ser281-Asp369; Expressed as His-MBP-TEV-CTD from a pET28a-based vector; N-terminal tags removed with TEV protease; Measured mass 9.828 kDa; also called WT CTD; hZnT8 CTD; source: E. coli BL21 (DE3), purified (Ni-NTA, TEV cleavage, Hi-Trap Q anion exchange, repeated Ni-NTA, amylose resin); not shown: His tag, N-terminal, cleaved; MBP, …
  stoichiometry N: 4

B2: C-terminal domain (CTD) of the human zinc transporter 8 (hZnT8), disease risk variant R325W (domain or fragment, UniProt Q8IWU4 281-369, looked up)
chain: B1 chain with R45W
notes: human zinc transporter 8 (hZnT8, SLC30A8), C-terminal domain, Ser281-Asp369, natural variant R325W (SNP rs13266634); Made from the WT CTD plasmid by QuikChange site-directed mutagenesis; N-terminal tags removed with TEV protease; also called R325W CTD; CTD of the disease risk variant; source: E. coli BL21 (DE3), purified (Ni-NTA, TEV cleavage, Hi-Trap Q anion exchange, repeated Ni-NTA, amylose …)
  stoichiometry N: 4
